First the molecules themselves.
B1: Zinc finger protein Aiolos (Homo sapiens), Q9UKT9 (parent)
chain: MEDIQTNAELKSTQEQSVPAESAAVLNDYSLTKSHEMENVDSGEGPANEDEDIGDDSMKVKDEYSERDENVLKSEPMGNAEEPEIPYSYSREYNEYENIKLERHVVSFDSSRPTSGKMNCDVCGLSCISFNVLMVHKRSHTGERPFQCNQCGASFTQKGNLLRHIKLHTGEKPFKCHLCNYACQRRDALTGHLRTHSVEKPYKCEFCGRSYKQRSSLEEHKERCRTFLQSTDPGDTASAEARHIKAEMGSERALVLDRLASNVAKRKSSMPQKFIGEKRHCFDVNYNSSYMYEKESELIQTRMMDQAINNAISYLGAEALRPLVQTPPAPTSEMVPVISSMYPIALTRAEMSNGAPQELEKKSIHLPEKSVPSERGLSPNNSGHDSTDTDSNHEERQNHIYQQNHMVLSRARNGMPLLKEVPRSYELLKPPPICPRDSVKVINKEGEVMDVYRCDHCRVLFLDYVMFTIHMGCHGFRDPFECNMCGYRSHDRYEFSSHIARGEHRALLK
B2: Cilium assembly protein DZIP1L (Homo sapiens), Q8IYY4 (parent)
chain: MQSPAATAEGLSGPLFGAYTFPTFKFQPRHDSMDWRRISTLDVDRVARELDVATLQENIAGITFCNLDREVCSRCGQPVDPALLKVLRLAQLIIEYLLHCQDCLSASVAQLEARLQTSLGQQQRGQQELGRQADELKGVREESRRRRKMISTLQQLLMQTGTHSYHTCHLCDKTFMNATFLRGHIQRRHAGVAEGGKQKKQEQPVEEVLEELRAKLKWTQGELEAQREAERQRQLQEAELIHQREIEAKKEFDKWKEQEWTKLYGEIDKLKKLFWDEFKNVAKQNSTLEEKLRALQSHSVMESKLGSLRDEESEEWLRQARELQALREKTEIQKTEWKRKVKELHEEHMAEKKELQEENQRLQASLSQDQKKAAAQSQCQISTLRAQLQEQARIIASQEEMIQSLSLRKVEGIHKVPKAVDTEEDSPEEEMEDSQDEQHKVLAALRRNPTLLKHFRPILEDTLEEKLESMGIRKDAKGISIQTLRHLESLLRVQREQKARKFSEFLSLRGKLVKEVTSRAKERQENGAVVSQPDGQPSVKSQQSTLVTREAQPKTRTLQVALPSTPAEPPPPTRQSHGSHGSSLTQVSAPAPRPGLHGPSSTPPSSGPGMSTPPFSSEEDSEGDRVQRVSLQPPKVPSRMVPRPKDDWDWSDTETSEENAQPPGQGSGTLVQSMVKNLEKQLEAPAKKPAGGVSLFFMPNAGPQRAATPGRKPQLSEDESDLEISSLEDLPLDLDQREKPKPLSRSKLPEKFGTGPQSSGQPRVPAW
B3: ATP synthase mitochondrial F1 complex assembly factor 2 (Homo sapiens), Q8N5M1 (parent)
chain: MWRSCLRLRDGGRRLLNRPAGGPSASMSPGPTIPSPARAYAPPTERKRFYQNVSITQGEGGFEINLDHRKLKTPQAKLFTVPSEALAIAVATEWDSQQDTIKYYTMHLTTLCNTSLDNPTQRNKDQLIRAAVKFLDTDTICYRVEEPETLVELQRNEWDPIIEWAEKRYGVEISSSTSIMGPSIPAKTREVLVSHLASYNTWALQGIEFVAAQLKSMVLTLGLIDLRLTVEQAVLLSRLEEEYQIQKWGNIEWAHDYELQELRARTAAGTLFIHLCSESTTVKHKLLKE
partner: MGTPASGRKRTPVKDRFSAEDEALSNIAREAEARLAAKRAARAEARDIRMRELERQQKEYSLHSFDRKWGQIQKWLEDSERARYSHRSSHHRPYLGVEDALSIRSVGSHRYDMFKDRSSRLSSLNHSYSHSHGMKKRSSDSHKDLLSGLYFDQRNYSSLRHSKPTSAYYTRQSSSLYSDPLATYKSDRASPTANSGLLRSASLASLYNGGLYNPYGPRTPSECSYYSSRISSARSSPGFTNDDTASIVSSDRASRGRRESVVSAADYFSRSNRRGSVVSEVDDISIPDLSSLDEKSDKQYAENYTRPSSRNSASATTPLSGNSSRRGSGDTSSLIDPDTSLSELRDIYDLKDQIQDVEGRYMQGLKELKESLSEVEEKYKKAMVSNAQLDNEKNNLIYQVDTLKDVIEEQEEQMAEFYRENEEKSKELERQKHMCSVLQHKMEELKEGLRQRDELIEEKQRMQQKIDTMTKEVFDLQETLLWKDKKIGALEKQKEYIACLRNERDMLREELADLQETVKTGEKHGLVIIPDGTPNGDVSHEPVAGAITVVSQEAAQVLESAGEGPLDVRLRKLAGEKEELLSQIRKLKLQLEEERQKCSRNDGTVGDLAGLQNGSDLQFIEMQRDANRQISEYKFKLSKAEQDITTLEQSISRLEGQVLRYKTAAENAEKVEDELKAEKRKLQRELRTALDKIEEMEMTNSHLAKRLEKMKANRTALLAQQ
B4: Dickkopf-related protein 1 (Homo sapiens), O94907 (parent)
chain: MMALGAAGATRVFVAMVAAALGGHPLLGVSATLNSVLNSNAIKNLPPPLGGAAGHPGSAVSAAPGILYPGGNKYQTIDNYQPYPCAEDEECGTDEYCASPTRGGDAGVQICLACRKRRKRCMRHAMCCPGNYCKNGICVSSDQNHFRGEIEETITESFGNDHSTLDGYSRRTTLSSKMYHTKGQEGSVCLRSSDCASGLCCARHFWSKICKPVLKEGQVCTKHRRKGSHGLEIFQRCYCGEGLSCRIQKDHHQASNSSRLHTCQRH
B5: Notch homolog 2 N-terminal-like protein A (Homo sapiens), Q7Z3S9 (parent)
chain: MCVTYHNGTGYCKCPEGFLGEYCQHRDPCEKNRCQNGGTCVAQAMLGKATCRCASGFTGEDCQYSTSHPCFVSRPCLNGGTCHMLSRDTYECTCQVGFTGKECQWTDACLSHPCANGSTCTTVANQFSCKCLTGFTGQKCETDVNECDIPGHCQHGGTCLNLPGSYQCQCLQGFTGQYCDSLYVPCAPSPCVNGGTCRQTGDFTFECNCLPETVRRGTELWERDREVWNGKEHDEN
partner: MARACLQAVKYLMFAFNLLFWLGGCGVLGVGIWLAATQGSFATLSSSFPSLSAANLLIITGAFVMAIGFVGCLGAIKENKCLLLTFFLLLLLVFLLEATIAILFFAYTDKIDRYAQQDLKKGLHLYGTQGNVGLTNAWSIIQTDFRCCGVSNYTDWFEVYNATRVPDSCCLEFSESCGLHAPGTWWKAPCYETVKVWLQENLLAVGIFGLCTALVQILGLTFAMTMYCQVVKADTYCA
B6: SH2 domain-containing protein 4A (Homo sapiens), Q9H788 (parent)
chain: MLKQILSEMYIDPDLLAELSEEQKQILFFKMREEQIRRWKEREAAMERKESLPVKPRPKKENGKSVHWKLGADKEVWVWVMGEHHLDKPYDVLCNEIIAERARLKAEQEAEEPRKTHSEEFTNSLKTKSQYHDLQAPDNQQTKDIWKKVAEKEELEQGSRPAPTLEEEKIRSLSSSSRNIQQMLADSINRMKAYAFHQKKESMKKKQDEEINQIEEERTKQICKSWKEDSEWQASLRKSKAADEKRRSLAKQAREDYKRLSLGAQKGRGGERLQSPLRVPQKPERPPLPPKPQFLNSGAYPQKPLRNQGVVRTLSSSAQEDIIRWFKEEQLPLRAGYQKTSDTIAPWFHGILTLKKANELLLSTGMPGSFLIRVSERIKGYALSYLSEDGCKHFLIDASADAYSFLGVDQLQHATLADLVEYHKEEPITSLGKELLLYPCGQQDQLPDYLELFE

In the first experiment the parent is B1. To be noted: with aakb2_human PRKAB2, O43741.
Sequence of aakb2_human PRKAB2, O43741 (O43741 whole entry): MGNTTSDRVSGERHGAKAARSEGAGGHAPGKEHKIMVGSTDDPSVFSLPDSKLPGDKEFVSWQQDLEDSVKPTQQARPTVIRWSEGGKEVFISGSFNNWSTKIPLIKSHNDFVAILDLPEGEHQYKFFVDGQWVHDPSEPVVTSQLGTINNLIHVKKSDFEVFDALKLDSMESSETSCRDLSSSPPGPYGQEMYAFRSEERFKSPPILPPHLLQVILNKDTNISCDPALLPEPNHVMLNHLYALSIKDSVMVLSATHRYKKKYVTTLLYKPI
N119D: the “effect of a mutation on the interaction” value is on record as “with no effect”.

Variants of B1 are the subject of another experiment. The note with it: with exoc8_human EXOC8, Q8IYI6.
Sequence of exoc8_human EXOC8, Q8IYI6 (Q8IYI6 whole entry): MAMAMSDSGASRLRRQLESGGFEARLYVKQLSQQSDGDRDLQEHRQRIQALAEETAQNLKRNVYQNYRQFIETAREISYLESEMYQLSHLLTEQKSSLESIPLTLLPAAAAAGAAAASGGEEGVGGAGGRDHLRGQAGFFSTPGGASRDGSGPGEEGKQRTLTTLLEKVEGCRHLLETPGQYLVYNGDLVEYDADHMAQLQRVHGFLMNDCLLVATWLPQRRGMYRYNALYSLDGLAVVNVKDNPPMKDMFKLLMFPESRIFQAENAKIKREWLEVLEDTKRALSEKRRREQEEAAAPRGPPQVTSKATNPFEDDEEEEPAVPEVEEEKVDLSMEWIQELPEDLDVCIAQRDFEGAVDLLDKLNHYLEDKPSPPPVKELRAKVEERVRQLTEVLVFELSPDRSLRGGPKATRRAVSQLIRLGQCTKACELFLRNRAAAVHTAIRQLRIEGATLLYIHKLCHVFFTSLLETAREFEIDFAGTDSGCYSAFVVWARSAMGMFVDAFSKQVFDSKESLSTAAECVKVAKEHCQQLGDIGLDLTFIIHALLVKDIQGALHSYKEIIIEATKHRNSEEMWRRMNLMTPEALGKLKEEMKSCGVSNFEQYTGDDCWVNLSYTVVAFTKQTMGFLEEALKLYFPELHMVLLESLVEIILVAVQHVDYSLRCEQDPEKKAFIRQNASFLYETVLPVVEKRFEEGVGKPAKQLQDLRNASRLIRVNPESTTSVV
Regarding N119D, the “effect of a mutation on the interaction” value was “with no effect”.

The variants in the next experiment derive from B1. To be noted: with tb22b_human TBC1D22B.
Regarding N119D, the “effect of a mutation on the interaction” value is on record as “with no effect”.

In the next experiment the parent is B1. The note with it: with p85b_human PIK3R2, O00459.
Consider N119D, for which the “effect of a mutation on the interaction” value was “disrupting interaction strength”.

Variants of B1 are the subject of another experiment. To be noted: with rpac1_human POLR1C.
Consider N119D, for which the “effect of a mutation on the interaction” value is “with no effect”.

The next experiment covers variants of B1. To be noted: with pfd5_human PFDN5, Q99471.
Sequence of pfd5_human PFDN5, Q99471 (Q99471 whole entry): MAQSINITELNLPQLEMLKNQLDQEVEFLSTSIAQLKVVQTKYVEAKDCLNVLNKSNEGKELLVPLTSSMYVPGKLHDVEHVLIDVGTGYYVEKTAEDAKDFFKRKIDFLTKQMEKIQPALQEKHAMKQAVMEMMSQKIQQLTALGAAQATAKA
As to N119D, the “effect of a mutation on the interaction” value is “with no effect”.

Variants of B1 are the subject of another experiment. To be noted: with nek6_human NEK6, Q9HC98.
Sequence of nek6_human NEK6, Q9HC98 (Q9HC98 whole entry): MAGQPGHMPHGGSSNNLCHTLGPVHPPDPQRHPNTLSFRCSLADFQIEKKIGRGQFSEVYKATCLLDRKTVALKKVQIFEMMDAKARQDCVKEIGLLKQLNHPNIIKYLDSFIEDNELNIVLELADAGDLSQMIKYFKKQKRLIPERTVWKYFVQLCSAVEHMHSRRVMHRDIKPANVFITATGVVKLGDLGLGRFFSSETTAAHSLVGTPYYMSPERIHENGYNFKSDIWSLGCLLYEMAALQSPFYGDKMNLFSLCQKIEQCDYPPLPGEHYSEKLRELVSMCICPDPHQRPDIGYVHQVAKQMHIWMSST
With N119D, the “effect of a mutation on the interaction” value was “with no effect”.

The variants in another experiment derive from B1. The note with it: with exos5_human EXOSC5, Q9NQT4.
Sequence of exos5_human EXOSC5, Q9NQT4 (Q9NQT4 whole entry): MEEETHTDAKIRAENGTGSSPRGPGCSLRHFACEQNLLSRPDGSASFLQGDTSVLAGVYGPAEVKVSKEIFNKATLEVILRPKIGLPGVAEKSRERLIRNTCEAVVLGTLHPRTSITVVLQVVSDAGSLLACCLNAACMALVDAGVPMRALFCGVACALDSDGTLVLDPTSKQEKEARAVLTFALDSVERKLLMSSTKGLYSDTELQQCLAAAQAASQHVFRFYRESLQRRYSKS
N119D: the “effect of a mutation on the interaction” value is given as “with no effect”.

In a further experiment the parent is B1. To be noted: with tstd2_human TSTD2, Q5T7W7.
Sequence of tstd2_human TSTD2, Q5T7W7 (Q5T7W7 whole entry): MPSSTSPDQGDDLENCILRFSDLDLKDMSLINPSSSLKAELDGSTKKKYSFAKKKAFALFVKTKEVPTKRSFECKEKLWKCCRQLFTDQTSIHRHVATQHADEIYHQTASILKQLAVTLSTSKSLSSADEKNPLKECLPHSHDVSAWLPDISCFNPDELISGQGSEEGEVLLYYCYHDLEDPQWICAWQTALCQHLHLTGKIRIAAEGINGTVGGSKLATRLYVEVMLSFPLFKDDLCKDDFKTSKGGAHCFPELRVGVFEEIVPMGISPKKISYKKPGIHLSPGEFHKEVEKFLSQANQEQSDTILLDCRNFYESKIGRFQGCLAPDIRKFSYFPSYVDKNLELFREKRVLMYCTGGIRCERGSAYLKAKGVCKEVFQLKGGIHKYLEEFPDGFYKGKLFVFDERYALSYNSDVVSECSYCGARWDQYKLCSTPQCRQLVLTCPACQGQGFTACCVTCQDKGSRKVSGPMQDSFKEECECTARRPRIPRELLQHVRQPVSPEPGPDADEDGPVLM
On to N119D, for which the “effect of a mutation on the interaction” value is “with no effect”.

The variants in another experiment derive from B2. The note with it: with cep76_human CEP76, Q8TAP6.
Sequence of cep76_human CEP76, Q8TAP6 (Q8TAP6 whole entry): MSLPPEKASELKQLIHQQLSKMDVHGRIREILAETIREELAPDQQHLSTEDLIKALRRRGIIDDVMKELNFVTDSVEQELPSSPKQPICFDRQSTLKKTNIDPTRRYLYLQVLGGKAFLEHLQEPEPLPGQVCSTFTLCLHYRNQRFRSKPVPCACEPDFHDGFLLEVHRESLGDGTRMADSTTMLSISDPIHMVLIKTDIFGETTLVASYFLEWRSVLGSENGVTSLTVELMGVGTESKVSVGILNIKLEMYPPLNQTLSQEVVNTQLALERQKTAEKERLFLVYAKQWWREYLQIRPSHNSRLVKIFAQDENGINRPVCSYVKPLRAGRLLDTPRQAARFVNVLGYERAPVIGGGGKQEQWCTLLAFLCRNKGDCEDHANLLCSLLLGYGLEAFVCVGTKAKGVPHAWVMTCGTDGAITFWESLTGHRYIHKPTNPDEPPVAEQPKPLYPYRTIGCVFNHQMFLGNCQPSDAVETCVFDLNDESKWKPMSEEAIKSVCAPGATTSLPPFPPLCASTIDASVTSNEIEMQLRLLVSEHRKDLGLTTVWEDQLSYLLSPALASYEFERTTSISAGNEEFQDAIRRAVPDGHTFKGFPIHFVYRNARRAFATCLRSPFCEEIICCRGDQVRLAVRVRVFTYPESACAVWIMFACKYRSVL
As for R88C, the “effect of a mutation on the interaction” value is “with no effect”.
Take R625H: the “effect of a mutation on the interaction” value is listed as “with no effect”.
As for G595E, the “effect of a mutation on the interaction” value was “with no effect”.

A further experiment covers variants of B3. To be noted: with lrrf2_human LRRFIP2, Q9Y608.
Consider E241G, for which the “effect of a mutation on the interaction” value is on record as “with no effect”.

Variants of B4 are the subject of the next experiment. To be noted: with kr101_human KRTAP10-1, P60331.
Sequence of kr101_human KRTAP10-1, P60331 (P60331 whole entry): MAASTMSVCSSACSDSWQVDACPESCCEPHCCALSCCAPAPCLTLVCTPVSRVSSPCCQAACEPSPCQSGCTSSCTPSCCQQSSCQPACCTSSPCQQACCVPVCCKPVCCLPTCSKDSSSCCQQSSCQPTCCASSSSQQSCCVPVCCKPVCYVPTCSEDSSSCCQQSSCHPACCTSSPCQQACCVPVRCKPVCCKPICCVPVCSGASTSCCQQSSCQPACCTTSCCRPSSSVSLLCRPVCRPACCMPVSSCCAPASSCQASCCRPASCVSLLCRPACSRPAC
With S207Y, the “effect of a mutation on the interaction” value was “with no effect”.

The variants in the next experiment derive from B4. To be noted: with mdfi_human MDFI.
For the variant S207Y, the “effect of a mutation on the interaction” value is “with no effect”.

The variants in the next experiment derive from B5. The note with it: with tsn4_human TSPAN4, O14817.
Take A115T: the “effect of a mutation on the interaction” value was “with no effect”.
For the variant R74Q, the “effect of a mutation on the interaction” value is reported as “with no effect”.

The variants in a further experiment derive from B6. The note with it: with tfp11_human TFIP11, Q9UBB9.
Sequence of tfp11_human TFIP11, Q9UBB9 (Q9UBB9 whole entry): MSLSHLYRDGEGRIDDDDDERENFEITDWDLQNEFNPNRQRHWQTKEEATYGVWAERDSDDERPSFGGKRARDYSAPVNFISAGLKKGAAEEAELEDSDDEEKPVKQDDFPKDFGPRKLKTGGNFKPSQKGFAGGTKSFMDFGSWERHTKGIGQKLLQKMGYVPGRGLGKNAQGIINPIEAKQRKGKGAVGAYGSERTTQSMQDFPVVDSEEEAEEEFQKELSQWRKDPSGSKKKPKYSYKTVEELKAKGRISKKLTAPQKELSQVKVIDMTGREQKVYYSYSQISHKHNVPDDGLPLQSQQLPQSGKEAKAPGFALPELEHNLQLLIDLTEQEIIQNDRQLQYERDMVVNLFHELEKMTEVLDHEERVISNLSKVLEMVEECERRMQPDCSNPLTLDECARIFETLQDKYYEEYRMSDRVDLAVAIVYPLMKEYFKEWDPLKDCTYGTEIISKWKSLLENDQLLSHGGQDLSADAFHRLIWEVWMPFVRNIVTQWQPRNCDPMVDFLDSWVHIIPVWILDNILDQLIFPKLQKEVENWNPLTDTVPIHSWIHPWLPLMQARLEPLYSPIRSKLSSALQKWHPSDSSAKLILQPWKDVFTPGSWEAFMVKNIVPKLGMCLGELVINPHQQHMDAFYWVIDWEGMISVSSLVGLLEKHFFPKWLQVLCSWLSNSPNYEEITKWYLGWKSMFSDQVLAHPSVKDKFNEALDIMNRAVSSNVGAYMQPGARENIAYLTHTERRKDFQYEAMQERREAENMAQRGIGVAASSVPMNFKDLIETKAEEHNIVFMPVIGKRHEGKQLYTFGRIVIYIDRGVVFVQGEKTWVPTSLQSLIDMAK
With G263A, the “effect of a mutation on the interaction” value was “with no effect”.
In the case of E216G, the “effect of a mutation on the interaction” value is “with no effect”.

Variants of B6 are the subject of another experiment. To be noted: with tacc1_human TACC1, O75410.
Sequence of tacc1_human TACC1, O75410 (O75410 whole entry): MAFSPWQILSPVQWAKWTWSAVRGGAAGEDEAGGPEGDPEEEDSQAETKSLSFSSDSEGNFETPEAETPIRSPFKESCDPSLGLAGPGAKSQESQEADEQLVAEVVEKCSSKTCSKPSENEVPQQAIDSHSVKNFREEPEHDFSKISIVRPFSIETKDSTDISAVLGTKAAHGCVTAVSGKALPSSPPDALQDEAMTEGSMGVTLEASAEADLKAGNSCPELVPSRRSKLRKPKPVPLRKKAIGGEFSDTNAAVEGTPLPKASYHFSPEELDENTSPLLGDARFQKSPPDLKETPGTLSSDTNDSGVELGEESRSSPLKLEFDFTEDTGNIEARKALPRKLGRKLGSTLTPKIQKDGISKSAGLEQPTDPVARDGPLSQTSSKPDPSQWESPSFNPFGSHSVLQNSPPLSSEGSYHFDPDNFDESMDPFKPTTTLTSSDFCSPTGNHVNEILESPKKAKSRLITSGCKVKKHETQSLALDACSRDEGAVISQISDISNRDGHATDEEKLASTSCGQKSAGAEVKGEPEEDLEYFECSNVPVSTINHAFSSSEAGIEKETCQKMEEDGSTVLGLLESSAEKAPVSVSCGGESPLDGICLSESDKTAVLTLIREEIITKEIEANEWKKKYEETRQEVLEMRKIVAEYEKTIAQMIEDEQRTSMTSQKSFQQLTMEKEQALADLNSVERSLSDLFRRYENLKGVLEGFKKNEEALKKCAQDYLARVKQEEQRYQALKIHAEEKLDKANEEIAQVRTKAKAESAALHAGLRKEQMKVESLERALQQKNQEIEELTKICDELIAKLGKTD
In the case of G263A, the “effect of a mutation on the interaction” value is “with no effect”.
Turning to E216G, the “effect of a mutation on the interaction” value is listed as “with no effect”.

In the next experiment the parent is B6. The note with it: with ldoc1_human LDOC1, O95751.
Sequence of ldoc1_human LDOC1, O95751 (O95751 whole entry): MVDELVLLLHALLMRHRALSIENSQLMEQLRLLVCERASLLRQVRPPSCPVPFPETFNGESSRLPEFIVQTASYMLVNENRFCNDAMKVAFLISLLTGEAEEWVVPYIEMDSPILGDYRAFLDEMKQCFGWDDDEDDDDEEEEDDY
Take G263A: the “effect of a mutation on the interaction” value is reported as “with no effect”.
For the variant E216G, the “effect of a mutation on the interaction” value is reported as “with no effect”.

Values taken from IntAct's records for PubMed 31515488.
